The supplement of paper PMC10065799, “High-throughput profiling of sequence recognition by tyrosine kinases and SH2 domains using bacterial peptide display” (eLife, 2023)

Legend:
[1] = test system: AncSZ; assay: phosphorylation enrichment, bacterial display (enrichment ratio); higher = better substrate or ligand; peptides without Tyr show the background
[2] = molecular target: EPHB1 (UniProt P54762); assay: as above
[3] = molecular target: EPHB2 (UniProt P29323); assay: as above
[4] = molecular target: FGFR1 (UniProt P11362); assay: as above
FGFR1, sequence (P11362 whole entry, looked up): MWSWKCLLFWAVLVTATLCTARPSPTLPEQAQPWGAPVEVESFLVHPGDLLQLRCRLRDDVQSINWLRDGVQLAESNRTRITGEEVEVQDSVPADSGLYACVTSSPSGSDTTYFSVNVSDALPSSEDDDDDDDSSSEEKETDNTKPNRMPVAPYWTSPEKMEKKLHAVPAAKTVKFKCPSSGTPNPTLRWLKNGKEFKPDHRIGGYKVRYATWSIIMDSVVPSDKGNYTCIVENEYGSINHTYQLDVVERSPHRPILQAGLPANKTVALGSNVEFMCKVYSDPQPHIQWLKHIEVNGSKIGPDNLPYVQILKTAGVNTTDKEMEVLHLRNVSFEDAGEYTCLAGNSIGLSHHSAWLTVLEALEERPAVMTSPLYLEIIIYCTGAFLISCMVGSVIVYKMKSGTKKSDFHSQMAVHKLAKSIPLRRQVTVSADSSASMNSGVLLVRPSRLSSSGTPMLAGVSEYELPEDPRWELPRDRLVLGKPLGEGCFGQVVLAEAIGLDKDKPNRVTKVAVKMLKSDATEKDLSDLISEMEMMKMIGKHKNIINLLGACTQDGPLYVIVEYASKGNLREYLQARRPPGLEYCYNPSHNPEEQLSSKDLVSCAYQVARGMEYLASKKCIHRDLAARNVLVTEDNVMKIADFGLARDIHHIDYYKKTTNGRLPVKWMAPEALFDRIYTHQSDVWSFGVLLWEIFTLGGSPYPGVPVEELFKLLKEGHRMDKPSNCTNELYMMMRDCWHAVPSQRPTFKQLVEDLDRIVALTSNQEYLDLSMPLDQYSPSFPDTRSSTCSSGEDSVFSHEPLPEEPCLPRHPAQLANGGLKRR

[5] = molecular target: FGFR3 (UniProt P22607); assay: as above
[6] = test system: Fer (mouse); assay: as above
[7] = molecular target: Fes (UniProt P07332); assay: as above
Fes, sequence (P07332 whole entry, looked up): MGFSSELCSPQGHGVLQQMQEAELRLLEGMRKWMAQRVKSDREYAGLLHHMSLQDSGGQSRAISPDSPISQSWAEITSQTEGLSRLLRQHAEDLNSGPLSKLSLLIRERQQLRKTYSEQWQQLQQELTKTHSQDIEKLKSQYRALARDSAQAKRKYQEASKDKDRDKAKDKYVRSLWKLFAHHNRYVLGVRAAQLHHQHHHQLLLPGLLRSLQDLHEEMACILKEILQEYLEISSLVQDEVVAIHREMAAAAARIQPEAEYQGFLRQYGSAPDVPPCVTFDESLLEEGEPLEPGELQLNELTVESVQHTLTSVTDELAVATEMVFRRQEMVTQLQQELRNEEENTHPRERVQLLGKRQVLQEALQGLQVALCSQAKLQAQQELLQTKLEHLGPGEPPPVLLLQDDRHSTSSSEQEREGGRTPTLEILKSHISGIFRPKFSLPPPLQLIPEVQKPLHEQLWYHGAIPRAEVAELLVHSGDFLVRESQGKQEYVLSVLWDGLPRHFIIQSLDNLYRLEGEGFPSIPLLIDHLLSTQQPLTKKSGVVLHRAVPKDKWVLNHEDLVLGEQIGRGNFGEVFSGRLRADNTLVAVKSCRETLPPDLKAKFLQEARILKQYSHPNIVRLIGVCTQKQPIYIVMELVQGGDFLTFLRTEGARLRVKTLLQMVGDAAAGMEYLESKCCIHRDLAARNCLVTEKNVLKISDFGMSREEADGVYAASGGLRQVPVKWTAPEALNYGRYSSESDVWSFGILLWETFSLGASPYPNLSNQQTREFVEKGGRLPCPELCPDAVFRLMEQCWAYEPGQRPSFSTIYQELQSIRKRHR

[8] = molecular target: Fyn (UniProt P06241); assay: as above
Fyn, sequence (P06241 whole entry, looked up): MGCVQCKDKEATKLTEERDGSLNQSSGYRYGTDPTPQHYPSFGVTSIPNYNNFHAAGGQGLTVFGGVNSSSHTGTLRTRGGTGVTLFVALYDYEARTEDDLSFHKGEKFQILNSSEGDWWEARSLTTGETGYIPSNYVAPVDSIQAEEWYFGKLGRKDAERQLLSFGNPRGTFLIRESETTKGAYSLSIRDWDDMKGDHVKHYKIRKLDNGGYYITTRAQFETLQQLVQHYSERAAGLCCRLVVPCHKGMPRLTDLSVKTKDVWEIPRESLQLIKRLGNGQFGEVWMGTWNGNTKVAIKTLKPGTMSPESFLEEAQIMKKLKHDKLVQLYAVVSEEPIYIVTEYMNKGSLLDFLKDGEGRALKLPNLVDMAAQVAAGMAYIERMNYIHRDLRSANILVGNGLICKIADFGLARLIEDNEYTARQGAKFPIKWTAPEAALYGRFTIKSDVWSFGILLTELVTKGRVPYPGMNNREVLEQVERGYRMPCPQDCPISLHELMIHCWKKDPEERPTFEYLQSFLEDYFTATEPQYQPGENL

[9] = molecular target: Hck (UniProt P08631); assay: as above
Hck, sequence (P08631 whole entry, looked up): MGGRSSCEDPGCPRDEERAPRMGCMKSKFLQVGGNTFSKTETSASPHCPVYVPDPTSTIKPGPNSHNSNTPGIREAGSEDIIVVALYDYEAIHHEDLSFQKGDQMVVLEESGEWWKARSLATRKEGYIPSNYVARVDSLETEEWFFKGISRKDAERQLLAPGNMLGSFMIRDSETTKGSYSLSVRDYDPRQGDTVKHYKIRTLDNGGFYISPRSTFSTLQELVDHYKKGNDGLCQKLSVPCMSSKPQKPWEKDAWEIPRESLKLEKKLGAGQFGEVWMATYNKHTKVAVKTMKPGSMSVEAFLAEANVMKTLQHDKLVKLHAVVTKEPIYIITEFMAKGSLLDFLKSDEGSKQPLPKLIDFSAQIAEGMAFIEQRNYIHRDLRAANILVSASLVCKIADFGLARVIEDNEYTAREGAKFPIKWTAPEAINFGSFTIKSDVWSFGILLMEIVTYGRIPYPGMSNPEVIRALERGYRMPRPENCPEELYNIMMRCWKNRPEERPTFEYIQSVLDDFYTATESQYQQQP

[10] = molecular target: Jak2 (UniProt O60674); assay: as above
[11] = molecular target: MERTK (UniProt Q12866); assay: as above
[12] = test system: c-Abl (mouse); assay: as above
[13] = test system: c-Src; assay: as above
[14] = molecular target: Grb2 SH2 (UniProt P62993); assay: SH2 binding enrichment of the phosphorylated peptide, bacterial display (enrichment ratio); higher = better substrate or ligand; peptides without Tyr show the background
[15] = molecular target: SHP2-C SH2; assay: as above
[16] = molecular target: c-Src SH2; assay: as above
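Wherever SH2 binding enrichment of the phosphorylated peptide, bacterial display is given: peptide library displayed on the E. coli surface as eCPX fusions, selected cells deep-sequenced, score is each peptide's frequency after selection divided by its frequency in the input.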
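Wherever phosphorylation enrichment, bacterial display is given: 11-residue human phosphosite peptides and single-mutation variants displayed on the E. coli surface, counted by deep sequencing, each peptide's frequency after selection divided by its frequency in the unselected input library; frequency after pTyr selection over input frequency; kinase dosed for 20-30% of maximal phosphorylation in three min.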

EPHB1, sequence (P54762 whole entry, looked up): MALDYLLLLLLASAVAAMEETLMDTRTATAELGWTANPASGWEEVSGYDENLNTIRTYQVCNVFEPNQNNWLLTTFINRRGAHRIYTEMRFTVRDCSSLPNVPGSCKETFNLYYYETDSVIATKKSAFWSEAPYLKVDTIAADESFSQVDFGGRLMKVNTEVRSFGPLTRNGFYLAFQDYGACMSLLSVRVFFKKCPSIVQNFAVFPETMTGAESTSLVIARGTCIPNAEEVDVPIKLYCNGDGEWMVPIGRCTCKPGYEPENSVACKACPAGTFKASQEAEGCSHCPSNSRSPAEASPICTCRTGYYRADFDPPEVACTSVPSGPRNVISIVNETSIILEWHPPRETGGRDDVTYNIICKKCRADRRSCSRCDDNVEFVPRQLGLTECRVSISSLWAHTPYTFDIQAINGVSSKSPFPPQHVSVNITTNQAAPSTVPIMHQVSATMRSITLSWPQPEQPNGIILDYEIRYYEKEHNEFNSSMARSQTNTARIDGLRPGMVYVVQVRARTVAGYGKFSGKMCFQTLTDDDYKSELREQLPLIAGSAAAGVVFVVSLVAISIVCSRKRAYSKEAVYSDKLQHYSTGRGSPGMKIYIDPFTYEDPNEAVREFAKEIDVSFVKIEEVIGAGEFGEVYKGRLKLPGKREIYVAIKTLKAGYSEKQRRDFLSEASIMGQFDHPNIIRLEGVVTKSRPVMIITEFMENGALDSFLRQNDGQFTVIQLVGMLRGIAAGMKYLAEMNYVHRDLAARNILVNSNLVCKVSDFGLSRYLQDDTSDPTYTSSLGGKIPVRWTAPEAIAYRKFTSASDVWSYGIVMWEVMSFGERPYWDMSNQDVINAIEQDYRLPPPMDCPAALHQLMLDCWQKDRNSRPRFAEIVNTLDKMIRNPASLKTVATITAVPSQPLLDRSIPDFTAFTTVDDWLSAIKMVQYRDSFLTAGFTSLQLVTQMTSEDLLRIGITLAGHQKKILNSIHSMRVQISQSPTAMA
EPHB2, sequence (P29323 whole entry, looked up): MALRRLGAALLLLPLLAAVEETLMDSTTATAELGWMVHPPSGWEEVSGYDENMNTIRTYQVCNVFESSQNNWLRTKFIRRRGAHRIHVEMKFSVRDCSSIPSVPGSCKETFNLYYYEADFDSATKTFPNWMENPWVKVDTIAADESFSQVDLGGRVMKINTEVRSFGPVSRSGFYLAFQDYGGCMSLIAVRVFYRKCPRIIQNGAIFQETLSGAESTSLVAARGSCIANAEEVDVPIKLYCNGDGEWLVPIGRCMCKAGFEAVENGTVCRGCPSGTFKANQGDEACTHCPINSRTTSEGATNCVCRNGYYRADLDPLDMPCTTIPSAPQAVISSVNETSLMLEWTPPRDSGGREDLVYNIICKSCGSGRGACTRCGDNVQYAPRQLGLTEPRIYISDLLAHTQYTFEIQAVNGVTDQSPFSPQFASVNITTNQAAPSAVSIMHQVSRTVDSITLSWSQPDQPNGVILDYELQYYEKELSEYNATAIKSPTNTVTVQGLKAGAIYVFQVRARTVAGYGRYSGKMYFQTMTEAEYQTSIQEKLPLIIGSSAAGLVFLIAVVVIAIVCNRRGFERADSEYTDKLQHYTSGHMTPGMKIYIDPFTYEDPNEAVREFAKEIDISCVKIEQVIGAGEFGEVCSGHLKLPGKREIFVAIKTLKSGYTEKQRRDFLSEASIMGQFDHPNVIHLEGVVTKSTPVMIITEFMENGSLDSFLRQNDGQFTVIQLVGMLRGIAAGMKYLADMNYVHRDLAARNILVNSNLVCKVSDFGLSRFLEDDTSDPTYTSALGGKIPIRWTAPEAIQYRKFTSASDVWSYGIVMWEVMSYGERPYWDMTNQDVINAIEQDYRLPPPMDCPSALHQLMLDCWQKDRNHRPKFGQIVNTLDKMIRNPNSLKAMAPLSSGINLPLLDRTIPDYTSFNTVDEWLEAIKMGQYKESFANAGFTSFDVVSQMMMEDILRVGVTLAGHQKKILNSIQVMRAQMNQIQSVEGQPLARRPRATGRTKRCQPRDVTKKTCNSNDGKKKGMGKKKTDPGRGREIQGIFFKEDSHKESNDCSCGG

Row | SH2 binding enrichment [14] | SH2 binding enrichment [15] | SH2 binding enrichment [16] | Sequence | phosphorylation enrichment [1] | phosphorylation enrichment [2] | phosphorylation enrichment [3] | phosphorylation enrichment [4] | phosphorylation enrichment [5] | phosphorylation enrichment [6] | phosphorylation enrichment [7] | phosphorylation enrichment [8] | phosphorylation enrichment [9] | phosphorylation enrichment [10] | phosphorylation enrichment [11] | phosphorylation enrichment [12] | phosphorylation enrichment [13]
1 | 0.995 | 0.953 | 0.953 | GTHCHYKAPIV [FZD9_Y569_T573I] | 1.32 | 0.513 | 0.532 | 0.531 | 0.636 | 0.58 | 0.858 | 0.428 | 0.544 | 0.658 | 0.4 | 3.44 | 0.395
2 | 0.975 | 0.865 | 0.916 | CASQLYPRHKH [DCTN4_Y263] | 0.673 | 0.43 | 0.464 | 0.533 | 0.639 | 0.44 | 0.928 | 0.38 | 0.483 | 1.02 | 0.428 | 0.807 | 0.405
3 | 0.77 | 0.651 | 1.23 | YVGGFYGGCNE [CTSC_Y352] | 1.17 | 0.54 | 0.553 | 0.639 | 0.962 | 0.786 | 1.14 | 0.864 | 0.984 | 1.06 | 0.682 | 0.869 | 0.786
4 | 0.928 | 0.75 | 0.513 | EARRVYRDIIH [ALDH5A1_Y175_G176R] | 0.549 | 0.318 | 0.386 | 0.357 | 0.415 | 0.305 | 0.547 | 0.352 | 0.325 | 0.475 | 0.403 | 0.528 | 0.41

Continued, sequence first:

Row | Sequence | SH2 binding enrichment [14] | SH2 binding enrichment [15] | SH2 binding enrichment [16] | phosphorylation enrichment [1] | phosphorylation enrichment [2] | phosphorylation enrichment [3] | phosphorylation enrichment [4] | phosphorylation enrichment [5] | phosphorylation enrichment [6] | phosphorylation enrichment [7] | phosphorylation enrichment [8] | phosphorylation enrichment [9] | phosphorylation enrichment [10] | phosphorylation enrichment [11] | phosphorylation enrichment [12] | phosphorylation enrichment [13]
5 | SLFPGYNFRFA [P2RX7_Y291_YF] | 1.24 | 0.962 | 0.819 | 0.844 | 0.614 | 0.46 | 0.433 | 0.736 | 0.511 | 0.953 | 0.472 | 0.476 | 0.673 | 0.475 | 0.508 | 0.502
6 | QTPVLYAMLDH [MPZ_Y220] | 0.837 | 2.71 | 0.922 | 0.853 | 10.7 | 8.88 | 3.44 | 2.84 | 9.39 | 1.02 | 5.21 | 7.14 | 0.845 | 10.7 | 2.67 | 4.54
7 | GGPAGYLRRAS [PKLR_Y38] | 0.666 | 0.42 | 0.514 | 0.717 | 0.406 | 0.398 | 0.405 | 0.442 | 0.377 | 0.678 | 0.636 | 0.458 | 0.529 | 0.528 | 0.671 | 0.429
8 | PSARTYCYKQE [KLHDC9_Y175] | 0.768 | 0.815 | 0.643 | 1.14 | 0.647 | 0.721 | 0.454 | 0.907 | 0.666 | 1.29 | 0.533 | 0.506 | 0.762 | 0.736 | 0.63 | 0.439
